Measurements from the supplement of paper PMC9732359.
± gives the uncertainty stated by the source.

Experiment: protein stability index of a GFP-peptide fusion (yeast GPS) (PSI 1-4); higher = more stable; sorted into four equal gates, so the index is relative within each strain
Details: pdr5∆
Summary of the method: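 Yeast carrying a pooled library were grown to mid-log phase in leucine-free medium. Each library plasmid expresses Cherry and has a tiled 17-residue yeast protein peptide fused downstream of GFP. Cells were sorted into four equal gates by GFP/Cherry ratio, and plasmids from each gate were PCR-amplified, Illumina-sequenced and assigned to strains by barcode. Summing, across gates, the read frequency times the gate number gave each peptide's protein stability index.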
Work on DEHNELMRQALAIKDSK [RPO21] yielded a protein stability index of 2.93 ± 0.063.
Work on DEINTAQDKWHLLPAFL [RET1] yielded a protein stability index of 3.31 ± 0.13.
In the case of DEKVTILVDSLTGNQLP [SWI1], the protein stability index is reported as 2.72 ± 0.064.
DELELEDAIHIALLTLK [PRE8] showed a protein stability index of 3.11 ± 0.065.
Sequence DELETKAEKKVELHGKR [PRP8] has a protein stability index of 2.95 ± 0.17.
For DELITEGNEKLAAVPAA [RPP2A], the protein stability index was 2.92 ± 0.099.
For DESDSENDIEIKGPEFK [YLR335W/NUP2], the protein stability index was 2.92 ± 0.21.
In the case of DETTVPSYYYYVDPETT [ROX3], the protein stability index is reported as 3.04 ± 0.072.
With DEVITEGQADIDMESDV [POP7] the protein stability index was 3.17 ± 0.058.
For DFILSLLHHVSELDSND [YJL039C/NUP192], the protein stability index was 1.88 ± 0.064.
Sequence DFKNEESLSEEHASLLV [MED8] has a protein stability index of 3.12 ± 0.16.
Work on DFLLSDWNKRFSHLAGG [BRR2] yielded a protein stability index of 2.82 ± 0.055.
In the case of DFPELKPYKQVKQIAPA [FAS2], the protein stability index is reported as 2.46 ± 0.069.
For DFSLRYISNLLYGVTIC [REC8], the protein stability index was 1.71 ± 0.041.
For DGAGGDNEVQRTMLELI [RPT1], the protein stability index was 2.95 ± 0.13.
With DGIFSSKTDNIEDPNLS [YMR153W/NUP53] the protein stability index was 2.2 ± 0.092.
DGIHYILNHIGQLTGIY [PRP8] gave a protein stability index of 1.55 ± 0.073.
DGKLEPSTRSNFILEVF [YJL039C/NUP192] showed a protein stability index of 1.61 ± 0.067.
DGKLIDISGTMSGGGNH [SMC4] gave a protein stability index of 3.4 ± 0.11.
In the case of DGTAQLSNNKTDEEEQL [YJR042W/NUP85], the protein stability index is reported as 3.16 ± 0.14.
DGTGVRVIVAGTLDINP [FAS1] showed a protein stability index of 2.87 ± 0.071.
In the case of DGVTHALYPQEARLRNL [RPB2], the protein stability index is reported as 3.06 ± 0.22.
With DHASIRRGYQVYREVCA [CYT1] the protein stability index was 1.5 ± 0.052.
For DHFIHLRNLHMKRMVAQ [SNF12], the protein stability index was 2.52 ± 0.083.
Sequence DHLKLVSLFSNLRHERN [YIL149C/MLP2] has a protein stability index of 2.67 ± 0.19.
Work on DHSWFLLIGCKLDQDDE [CSI1] yielded a protein stability index of 1.95 ± 0.096.
In the case of DIDDELNELETLIKKKQ [SMC2], the protein stability index is reported as 3.11 ± 0.1.
Work on DIDDILKKGEQKTQELN [ISW2] yielded a protein stability index of 3.21 ± 0.1.
Work on DIEEGPITSKSWEEGTR [MCD1] yielded a protein stability index of 2.92 ± 0.19.
Work on DIEQLEYSRDCFCEDHC [RPB3] yielded a protein stability index of 2.54 ± 0.052.
With DINVELFPVAAQDSLTV [RPB8] the protein stability index was 1.82 ± 0.11.
With DISAAIVHSSDGHLQFL [DLS1] the protein stability index was 2.85 ± 0.068.
For DISAMQPVNPKPFLKGL [SMX3], the protein stability index was 3.18 ± 0.068.
Sequence DITDGKDYHTLANNVES [RPS18A] has a protein stability index of 3.31 ± 0.048.
For DIVPYFLKHNGEEDAVD [RPN1], the protein stability index was 3.27 ± 0.18.
DIYFKLKKLEKEYELLT [RPT3] gave a protein stability index of 2.51 ± 0.081.
DKDAFIPKLKPAPINSL [SNU114] showed a protein stability index of 2.88 ± 0.063.
For DKDVKAKYETSILEHSG [FAS2], the protein stability index was 3.33 ± 0.065.
DKGAVGPNNFIWPAEDA [MED4] gave a protein stability index of 3.43 ± 0.24.
Work on DKINKYSLIRETNGYDP [SNF5] yielded a protein stability index of 1.62 ± 0.12.
DKLKDIVGQTSRTVTPA [ITC1] gave a protein stability index of 3.13 ± 0.046.
Work on DKLLKRLKEKGSRVLIF [ISW2] yielded a protein stability index of 1.61 ± 0.059.
For DKNSGVKSEVDVQVDAE [ITC1], the protein stability index was 2.15 ± 0.073.
Sequence DKPLLKAGRAFHKYRLK [RPL2A] has a protein stability index of 3.07 ± 0.058.
DKQARKQRTKKEDKSEA [SNF2] gave a protein stability index of 3.54 ± 0.13.
With DLCSSVLSQFERSYPSE [ROX3] the protein stability index was 3.42 ± 0.17.
In the case of DLEEAYATQVKTDNTVD [RPT3], the protein stability index is reported as 2.58 ± 0.091.
Work on DLFTHLWNQWLKLNTSL [SRP68] yielded a protein stability index of 2.05 ± 0.047.
Sequence DLIRSESMLHLSIWIKN [IRR1] has a protein stability index of 2.01 ± 0.05.
For DLISKKTKTSLLPTIKR [RPR2], the protein stability index was 2.58 ± 0.073.
For DLKRFVDESLLSTLPAG [QCR2], the protein stability index was 3.23 ± 0.085.
